This series concerns T1, MBP-SphR (Pseudomonas aeruginosa (strain PAO1?)), ORF:ae0b4f1c.
T1 sequence: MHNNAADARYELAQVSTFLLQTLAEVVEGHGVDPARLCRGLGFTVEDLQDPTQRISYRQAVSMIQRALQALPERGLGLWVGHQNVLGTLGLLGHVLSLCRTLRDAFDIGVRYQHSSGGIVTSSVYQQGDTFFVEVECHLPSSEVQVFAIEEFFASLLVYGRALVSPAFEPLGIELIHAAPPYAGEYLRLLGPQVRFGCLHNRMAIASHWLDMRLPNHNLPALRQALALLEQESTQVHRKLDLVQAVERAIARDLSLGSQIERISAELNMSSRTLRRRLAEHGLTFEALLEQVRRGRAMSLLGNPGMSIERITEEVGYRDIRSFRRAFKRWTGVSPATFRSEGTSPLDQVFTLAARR
The series is described as follows: competition. To be noted: 10 mM Tris-HCl pH 7.5, 50 mM KCl, 1 mM DTT, 1 mM EDTA, 3 mM MgCl2, 50 ug/ml BSA, 4% glycerol, 0.05% NP-40, 50 ng/ul poly(dI-dC), 30 C, 30 min.

With “GGTTGCCACTGTAGTGCCAGGGTGGTGGAGTCGAGGGGGGCGTAGCGGACAGGAAGGGGGTGAGCGCCGGCCATCCTGCATGGACGGCAAGGCAGGCGGGTAAAAAAAGGCCGCCTGCGT (double strand) [cerN promoter -200 to -81, unlabeled competitor]”, the binding result is given as “binds”.
